# Results published in paper PMC10200060, “Inhibition of DAMP actions in the tumoral microenvironment using lactoferrin-glycyrrhizin conjugate for glioblastoma therapy” (Biomaterials Research, 2023).
# B1: Lf-GL: lactoferrin-glycyrrhizin conjugate with ligation ratio Lf:GL 1:10, used in further experiments (conjugate, UniProt P24627 20-708, looked up)
# Lactotransferrin: APRKNVRWCTISQPEWFKCRRWQWRMKKLGAPSITCVRRAFALECIRAIAEKKADAVTLDGGMVFEAGRDPYKLRPVAAEIYGTKESPQTHYYAVAVVKKGSNFQLDQLQGRKSCHTGLGRSAGWIIPMGILRPYLSWTESLEPLQGAVAKFFSASCVPCIDRQAYPNLCQLCKGEGENQCACSSREPYFGYSGAFKCLQDGAGDVAFVKETTVFENLPEKADRDQYELLCLNNSRAPVDAFKECHLAQVPSHAVVARSVDGKEDLIWKLLSKAQEKFGKNKSRSFQLFGSPPGQRDLLFKDSALGFLRIPSKVDSALYLGSRYLTTLKNLRETAEEVKARYTRVVWCAVGPEEQKKCQQWSQQSGQNVTCATASTTDDCIVLVLKGEADALNLDGGYIYTAGKCGLVPVLAENRKSSKHSSLDCVLRPTEGYLAVAVVKKANEGLTWNSLKDKKSCHTAVDRTAGWNIPMGLIVNQTGSCAFDEFFSQSCAPGADPKSRLCALCAGDDQGLDKCVPNSKEKYYGYTGAFRCLAEDVGDVAFVKNDTVWENTNGESTADWAKNLNREDFRLLCLDGTRKPVTEAQSCHLAVAPNHAVVSRSDRAAHVKQVLLHQQALFGKNGKNCPDKFCLFKSETKNLLFNDNTECLAKLGGRPTYEEYLGTEYVTAIANLKKCSTSPLLEACAFLTR
# modifications: glycyrrhizin conjugate
# How the values were obtained:
# U87MG spheroid = experiment: GBM spheroid growth inhibition; type: cell-based, human; settings: GL equivalent 50 µM, day 6 (control 294%)
# Experimental: Fig. S8. GBM spheroid growth inhibition of Lf-GL. To form U87MG spheroid, cells were seeded at density of 1X10^5 cells in concave mold (StemFIT 3D; MICROFIT, Korea). After spheroids were formed, they were transferred to 24-well plate coated with 2% agarose gel. The constructed spheroids were treated with conditioned medium at 2 days interval after a washing step with PBS. (a) Morphology of U87MG spheroid treated with Lf-GL of GL equivalent concentration of 50 µM on day 0, 2, 4 and 6, respectively. Scale bar: 200 µm (b) GBM spheroids time-related volume after treated with Lf-GL of GL equivalent concentration of 50 µM. Data were expressed as mean ± S.E.M (n=9). **P <0.01 versus Control.
# [1] = tested on: orthotopic GBM (U87MG) mice model; experiment: Nissl staining: GBM/normal brain ratio; type: in vivo, Balb/c nude mice; settings: daily i.v. GL equivalent 50 mg kg^−1, 14 days (control 37.5 ± 2.3)
# Text: (§1) After two weeks, mice were sacrificed, and the brains were harvested and fixed with paraformaldehyde (4%). Then, tissue processing was automatically conducted using a Leica TP1020 semi-enclosed Benchtop Tissue Processor (Leica Biosystems, Wetzlar, Hesse, Germany), followed by embedding in paraffin blocks. Paraffin blocks were sliced into 5 μm thick slices using a Leica RM2145 Microtome (Leica Biosystems). Nissl staining was used to stain brain tissue slides with pre-warmed 0.1% Cresyl Violet Stain Solution (Abcam). TUNEL assays were conducted following the manufacturer’s instructions. For immunofluorescence staining; anti-HMGB1 antibody (Abcam), anti-Ki67 antibody (Abcam), anti-CD31 antibody (Abcam), and anti-VEGF antibody (Abcam) were used as primary antibodies, and goat anti-rabbit IgG-H&L Alexa Fluor 488 and goat anti-rabbit IgG H&L Alexa Fluor 647 were used as secondary antibodies, followed by DAPI mounting.
# rat aortic rings = experiment: Aorta ring assay (ex vivo); settings: VEGF-conditioned medium, GL equivalent 200 µM, 14 days
# Experimental: An aorta ring assay was conducted to confirm the anti-angiogenesis effect of Lf-GL ex vivo. A 48-well plate was coated with of Matrigel® (100 μL) and was incubated for 30 min or more in 37℃ incubators. In the meantime, thoracic aortas of 7-week-old male SD rats were excised. Then, the fat layer and outer membrane were removed, and rings approximately 1 mm in length were prepared. The prepared aortic rings were seeded on a coated Matrigel® of 48-well plate and were covered with Matrigel®. (100 μL) Subsequently, the aortic ring was treated with a control (with or without 25 ng mL^−1 of VEGF) or different concentrations of Lf-GL complex. Medium was changed once every two days. Fourteen days after treatment, optical images of sprouting microvessels were obtained using microscopy magnification (× 40 or × 100). Sprouting microvessel area was quantified using Image J and Sigma Plot.
# Fig. S14. Significant inhibitory effect of Lf-GL in aortic ring angiogenesis. Optical images of vessel regression in aortic ring with Lf-GL treatment. Aortic ring assay was carried out in 48-well plate coated with Matrigel. VEGF-non treated control represents that aortic ring incubated with normal medium. VEGF-treated control represents that aortic ring incubated with 25 ng mL^-1 VEGF-conditioned medium. […]
# [2] = In vivo fluorescence tracer image (brain); set-up: species or system Balb/c mice; settings: FITC-tagged
# Experimental: For the fluorescence tracer images, Balb/c mice were administered either FITC-tagged GL or FITC-tagged Lf-GL at a GL equivalent concentration of 50 mg kg^−1 body weight via tail vein injection. After 1, 10, 30, and 60 min, the experimental mice were sacrificed, and the organs were extracted. The fluorescence signals of FITC-tagged GL or FITC-tagged Lf-GL in organs were imaged using an in vivo imaging system (FOBI, CELLGENTEK, South Korea). The exposure time was fixed to 200 s for analyzing fluorescent signals from tissues. The quantified fluorescence signal of the brain at each time point was measured in terms of intensity units (IU, Intensity Min^−1 Gain^−1).
# Fig. S15. Fluorescence tracer images of intravenously injected GL and Lf-GL. Balb/c mice were administered either FITC-tagged GL or FITC-tagged Lf-GL at a GL equivalent concentration of 50 mg kg^-1 body weight via tail vein injection. The fluorescence signals of FITC-tagged GL or FITC-tagged Lf-GL in organs were imaged using an in vivo imaging system (FOBI, CELLGENTEK, South Korea). The exposure time was fixed to 200 sec for analyzing fluorescent signals from tissues. The quantified fluorescence signal of brain at each time point was measured with Intensity Unit (IU, Intensity Min^-1 Gain^-1).
# [3] = mouse, in vivo, iv
# [4] = In vivo pharmacokinetics study; settings: mice, i.v.
# U87MG = experiment: Annexin V/PI apoptosis staining in U87MG; type: cell-based, human; settings: GL equivalent 50 µM, 24 h (control 1.40%)
# Experimental: Fig. S10. Non-apoptotic U87MG growth inhibition of Lf-GL. Annexin V-DY-634 / PI apoptosis staining to detect the apoptosis and necrosis in the Control, GL, Lf, and Lf-GL treated group at all GL equivalent concentration of 50 µM for 24 h. However, the cell population of annexin V (+)/PI (+) in the Lf-GL treatment group was 0.28%, which was even lower level to 1.40% in the Control group
# CD31 = experiment: Immunofluorescence staining of CD31 in GBM tissue; type: in vivo, Balb/c nude mice; settings: GBM mice, daily i.v., 14 days (control MFI 14.7 ± 1.4)
# Text: as §1
# [5] = tested on: orthotopic GBM (U87MG) mice model; experiment: TUNEL assay of GBM tissue; type: in vivo, Balb/c nude mice; settings: daily i.v., 14 days (control 28.5 ± 4.8)
# Text: as §1
# [6] = GL equivalent 50 mg kg^−1, plasma
molecule,measurement,setting,value
B1,Spheroid volume increase at day 6 compared to day 0,U87MG spheroid,156%
same,GBM/normal brain ratio,[1],8.9 ± 3.2
same,Decrease of sprouted area of the micro-vessel,rat aortic rings,80.2 ± 4.5%
same,Time up to which fluorescence signal was detected in the brain,[2]; i.v. GL equivalent 50 mg kg^−1,up to 60 min
same,Fluorescence intensity in the brain,"[2]; i.v. GL equivalent 50 mg kg^−1, 10 min after injection","15,234 I.U."
same,Time after administration until cleared from / remaining in circulation,[3],720 min
same,"T1/2, elimination half-life",[3]; 50 mg/kg,5.3 ± 0.4 min
same,Increase of AUClast versus free GL,[4]; GL equivalent 50 mg kg^−1,tenfold
same,Cmax,[4]; [6],270.98 ± 130.92 μg/㎖
same,"MRT, mean retention time",[4]; [6],3.4 ± 0.8 min
same,Tmax,[4]; [6],1 min
same,Annexin V (+)/PI (+) cell population,U87MG,0.28%
same,Decrease of MFI of CD31,CD31,sevenfold
same,TUNEL MFI,[5],9.1 ± 0.9
